From patent US20220249563A1 (LEGEND BIOTECH IRELAND, published 2022) come the findings set out here.

First the molecules themselves.
T1: extracellular domain of human DLL3 protein (aa27-466) having an N-terminal FLAG tag (AdipoGen, AG-40B-0151) (human, UniProt Q9NYJ7 27-466)
T1 construct: range 27-466; also called DLL3 ECD protein
T1 sequence (looked up): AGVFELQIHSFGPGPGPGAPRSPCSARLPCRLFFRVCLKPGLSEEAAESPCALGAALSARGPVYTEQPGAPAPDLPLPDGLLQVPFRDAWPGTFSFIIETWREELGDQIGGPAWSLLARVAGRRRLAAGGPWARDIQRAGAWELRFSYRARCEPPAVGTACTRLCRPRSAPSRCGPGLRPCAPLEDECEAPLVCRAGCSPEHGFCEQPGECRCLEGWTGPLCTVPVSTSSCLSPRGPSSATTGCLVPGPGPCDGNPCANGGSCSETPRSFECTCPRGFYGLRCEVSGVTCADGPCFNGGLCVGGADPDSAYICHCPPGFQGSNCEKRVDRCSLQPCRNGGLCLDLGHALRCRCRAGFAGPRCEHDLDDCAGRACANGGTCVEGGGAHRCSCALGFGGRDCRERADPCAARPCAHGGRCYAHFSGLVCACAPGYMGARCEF

B1: AS64006 (VHH)
VHH: QVHLVESGGGSVQAGGSLRLSCEVSGYTGDTTYIGWFRQAPGKEREGVALIYTSGTSEYYADSVKGRFIISRDNAKNTVYLQMNSLKPEDTAMYYCGARSRTMMYWGQGTQVTVSS
notes: camel sdAb; crude E. coli supernatant
B2: AS63956 (VHH)
VHH: QVHLVESGGGLVQAGGSLRLSCAASGFTYSNCCMRWYRQAPGKARELVSLINSSGGTYYADSVRGRFTISKDNAKNTLYLQMNSLKPEDTAMYYCAAYQAKYCSGPCAPPTDWGQGTQVTVSS
notes: as for B1
B3: AS63987 (VHH)
VHH: QVRLVESGGGSVQAGGSLRLSCEATGYRNCMAWFRQAPGKEREGVAVIYTPSGITDYASSVKGRFTISQNNARNTQYLQMNSLKPEDTAMYYCAADRPFVCNIANMRRSSNWGRGTQVTVSS
notes: as for B1
B4: AS63993 (VHH)
VHH: QVKLVESGGGLVQAGGSLRLSCTVSGFTFDDLVMAWFRQAPGKERQLVSLVATAGNSVYADSVKGRFTLSRDNAHSTAYLQMNGLKPEDTAMYYCAARTDSEHAFKFWGQGTQVTVSS
notes: as for B1
B5: AS64060 (VHH)
VHH: QVKLVESGGGSVQAGGSLRLSCAASGSTYCTYRMSWFRQAPGKEREFVAVIDSGGSTSYADSVKGRFTISRDNAKNTVYLQMNSLKPEDTAMYYCKTDPTIGCPQTYRYNYWGQGTQVTVSS
notes: as for B1
B6: AS76169 (VHH)
VHH: QVHLMESGGGSVQAGGSLRLSCAASGYIYSSFCMGWFRQAPGKEREVVAYIRDNIMTSYTDSVKGRFTISKDNAKRTLYLQMNGLKPEDTGMYYCAVDRGGYANSCAVAARYDYWGRGTQVTVSS
notes: as for B1
B7: AS64071 (VHH)
VHH: QVHLMESGGGSVQAGGSLRLSCVASGNTYRLNSMGWFRQAPGKEREGVAFIVMIRGTTYYGASVKGRFTISQDNAQTTVYLQMSSLKPEDTAMYYCAASTKDQFYVFNPIGYDSWGQGTQVTVSS
notes: as for B1
B8: AS63937 (VHH)
VHH: QVKLVESGGGSVQAGGSLRLSCAASGSTISSRPMAWFRQAPGKEREGVACIHTGLGRTYYADSVKGRFTISQDNAKNTVYLQVNSLKPEDTAMYYCAADSRRPCMVAAGYTYWGQGTQVTVSS
notes: as for B1
B9: AS63965 (VHH)
VHH: QVQLVESGGGSVQAGGSLRLSCVASGYSSGSCRMGWYRQAPGKERELVSKVISDGTTVYADSVKGRFTLSQGNAKNTVYLQMSSLLPEDTAMYYCNAWCREYPGGILNNGWGQGTQVTVSS
notes: as for B1
B10: AS75695 (VHH)
VHH: QVRLVESGGGSVQAGGSLRLSCVASGYTVSAYCMGWFRQVLGKGRERIAFIDAGGATIYADPVKGRFTISKDNAKNTLYLQMNSLKPEDTAMYYCVADRRGRVRRCEYNAWGQGTQVTVSS
notes: as for B1
B11: AS64380VH7 HCAb (Fc fusion, not shown: a dimerising Fc or GST)
chain: EVQLVESGGGLVQPGGSLRLSCAASGNTYSSNYMGWFRQAPGKGREEVAVIYTRGGHTYYVDSVRGRFTISQDNAKNSVYLQMNSLRAEDTAMYYCAASSRHRLGLNNPRDYDYWGQGTLVTVSS
notes: humanized sdAb fused with human IgG1 hinge and Fc (humanized HCAb), crude HEK293 medium
B12: AS64380VH4 HCAb (Fc fusion, not shown: a dimerising Fc or GST)
chain: EVQLVESGGGLVQPGGSLRLSCAASGNTYSSNYMGWFRQAPGKGLEEVAVIYTRGGHTYYVDSVRGRFTISRDNAKNSLYLQMNSLRAEDTAVYYCAASSRHRLGLNNPRDYDYWGQGTLVTVSS
notes: as for B11
B13: AS64380VH5 HCAb (Fc fusion, not shown: a dimerising Fc or GST)
chain: EVQLVESGGGLVQPGGSLRLSCAASGNTYSSNYMGWFRQAPGKGLEEVAVIYTRGGHTYYVDSVRGRFTISQDNAKNSLYLQMNSLRAEDTAVYYCAASSRHRLGLNNPRDYDYWGQGTLVTVSS
notes: as for B11
B14: AS64380 HCAb (Fc fusion, not shown: a dimerising Fc or GST)
chain: EVQLVESGGGSVQAGGSLTLSCEASGNTYSSNYMGWFRQAPGKEREEVAVIYTRGGHTYYVDSVRGRFTISQDNAKNTVYLQMNSLKPEDTAMYYCAASSRHRLGLNNPRDYDYWGQGTQVTVSS
notes: camel sdAb fused with human IgG1 hinge and Fc (chimeric HCAb), crude HEK293 medium
B15: AS64380VH6 HCAb (Fc fusion, not shown: a dimerising Fc or GST)
chain: EVQLVESGGGLVQPGGSLRLSCAASGNTYSSNYMGWFRQAPGKGLEEVAVIYTRGGHTYYVDSVRGRFTISQDNAKNSVYLQMNSLRAEDTAMYYCAASSRHRLGLNNPRDYDYWGQGTLVTVSS
notes: as for B11
B16: AS63997VH4 HCAb (Fc fusion, not shown: a dimerising Fc or GST)
chain: QVQLVESGGGVVQPGGSLRLSCAASFSGYGVSTMAWFRQAPGKGLEGVAAITVGSGNTYYADSVKGRFTISRDNSKNTLYLQMNSLRAEDTAVYYCAVGYLSGGSWDVPGRYNYWGQGTLVTVSS
notes: as for B11
B17: AS63997VH6 HCAb (Fc fusion, not shown: a dimerising Fc or GST)
chain: QVQLVESGGGVVQPGGSLRLSCAASFSGYGVSTMAWFRQAPGKGREGVAAITVGSGNTYYADSVKGRFTISRDNSKNTVYLQMNSLRAEDTAMYYCAVGYLSGGSWDVPGRYNYWGQGTLVTVSS
notes: as for B11
B18: AS63997VH5 HCAb (Fc fusion, not shown: a dimerising Fc or GST)
chain: QVQLVESGGGVVQPGGSLRLSCAASFSGYGVSTMAWFRQAPGKGLEGVAAITVGSGNTYYADSVKGRFTISRDNSKNTVYLQMNSLRAEDTAMYYCAVGYLSGGSWDVPGRYNYWGQGTLVTVSS
notes: as for B11
B19: AS63997 HCAb (Fc fusion, not shown: a dimerising Fc or GST)
chain: QVRLVESGGGSVQAGGSLRLSCAGSFSGYGVSTMAWFRQAPGKEREGVAAITVGSGNTYYADSVKGRFTISRDNAKRTVFLQMNSLKPEDTAMYYCAVGYLSGGSWDVPGRYNYWGQGTQVTVSS
notes: as for B14
B20: AS64511VH6 HCAb (Fc fusion, not shown: a dimerising Fc or GST)
chain: EVQLVESGGGLVQPGGSLRLSCAASRATYSTNYISWFRQAPGKGREAVATITTGDGETAYADSVKGRFTISRDNAKNSVYLQMNSLRAEDTAMYYCAANLRIGGDWFDGRDFRAWGQGTLVTVSS
notes: as for B11
B21: AS64511VH4 HCAb (Fc fusion, not shown: a dimerising Fc or GST)
chain: EVQLVESGGGLVQPGGSLRLSCAASRATYSTNYISWFRQAPGKGLEAVATITTGDGETAYADSVKGRFTISRDNAKNSLYLQMNSLRAEDTAVYYCAANLRIGGDWFDGRDFRAWGQGTLVTVSS
notes: as for B11
B22: AS64511VH5 HCAb (Fc fusion, not shown: a dimerising Fc or GST)
chain: EVQLVESGGGLVQPGGSLRLSCAASRATYSTNYISWFRQAPGKGLEAVATITTGDGETAYADSVKGRFTISRDNAKNSVYLQMNSLRAEDTAMYYCAANLRIGGDWFDGRDFRAWGQGTLVTVSS
notes: as for B11
B23: AS64511 HCAb (Fc fusion, not shown: a dimerising Fc or GST)
chain: QVQLVESGGGSVQAGGSLRLSCAASRATYSTNYISWFRQAPGKEREAVATITTGDGETAYADSVKGRFTISRDNAKNTVYLQMNSLKPEDTAMYYCAANLRIGGDWFDGRDFRAWGQGTQVTVSS
notes: as for B14

One test deals with T1, extracellular domain of human DLL3 …. Description: ELISA (protein), FACS (cells).
B1: the binding result is “binds”.
For the molecule B2, the binding result is “binds”.
On the same count and under the same terms, the entry for B3 is “binds”; for B4 it is “binds”; for B5 it is “binds”.
As for B6, the binding result was “binds”.
Still for that read-out and setting: the entry for B7 is “binds”; for B8 it is “binds”; for B9 it is “binds”.
Still for that read-out and setting: the entry for B10 is “binds”.

Another test has the same target. Description: SPR (Biacore), HCAb captured by anti-human Fc, human DLL3 as analyte, 1:1 fit. From the text:
The camel and humanized sdAb sequences were fused with human IgG1 hinge and Fc, resulting the chimeric and humanized HCAb sequences. The DNAs encoding these HCAbs were synthesized and inserted into pTT5 vector. HCAb expression plasmids were used to transfect HEK293 cells. Crude HCAb proteins secreted to the medium were subjected to SPR affinity measurement as follows: briefly, capturing antibody anti-human Fc pAb (GE healthcare) was immobilized on a Biacore™ CM5 chip to approximately 6,000 RU using EDC-activated amine coupling chemistry. HCAb of interest was captured for 300 seconds onto the sensorchip surface. Human DLL3 (AdipoGen, AG-40B-0151) was flowed over the sensorchip surface at a series of increasing concentrations. Association and dissociation phases were monitored. Captured antibody and antigen were removed between cycles using 10 mM Glycine-HCl, pH 2.0 buffer in order to ensure a fresh binding surface for the antigen. The resulting sensorgrams were fit globally using a 1:1 binding model in order to calculate on- and off-rates (ka and kd, respectively), as well as affinities (KD).
(SPR reads the build-up and loss of mass on a sensor chip optically.)
For B11, the Kd (as a rule, the concentration at which binding is half-saturated) came to 45 nM; the off-rate (koff) (usually a measure of how fast the partners let go of each other) was determined as 0.0015 s⁻¹; the kon (commonly a measure of how fast the partners come together) was 32000 M⁻¹ s⁻¹.
The molecule B12 showed a Kd of 14 nM, a koff of 0.0044 s⁻¹ and a kon of 310000 M⁻¹ s⁻¹.
The molecule B13 came in with a Kd of 26 nM, a koff of 0.0015 s⁻¹ and a kon of 59000 M⁻¹ s⁻¹.
For the molecule B14, the Kd amounted to 8.4 nM, the koff came to 0.0056 s⁻¹ and the kon amounted to 670000 M⁻¹ s⁻¹.
The corresponding values for B15 are 17 nM, 0.0015 s⁻¹ and 88000 M⁻¹ s⁻¹.
B16 yielded an equilibrium dissociation constant (Kd) of 21 nM, a koff of 0.018 s⁻¹ and a kon of 840000 M⁻¹ s⁻¹.
Molecule B17 yielded a Kd of 33 nM, a koff of 0.06 s⁻¹ and a kon of 1.8e+06 M⁻¹ s⁻¹.
In the case of B18, the affinity, expressed as Kd, was 37 nM; the koff is 0.021 s⁻¹; the kon amounted to 580000 M⁻¹ s⁻¹.
The corresponding values for B19 are 16 nM, 0.0064 s⁻¹ and 390000 M⁻¹ s⁻¹.
The corresponding values for B20 are 3.4 nM, 0.00048 s⁻¹ and 140000 M⁻¹ s⁻¹.
Regarding B21, the affinity, expressed as Kd, was 6 nM; the koff was determined as 0.00094 s⁻¹; the kon was 160000 M⁻¹ s⁻¹.
In the same order, the values of B22 are 2.9 nM, 0.00047 s⁻¹ and 160000 M⁻¹ s⁻¹.
In the same order, the values of B23 are 3 nM, 0.0004 s⁻¹ and 130000 M⁻¹ s⁻¹.
